PMC10582078

Columns and labels:
[1] = IFA of co-assembled filaments, SW13 vim− cells; conditions: glycan lost; control: WT NF-L
[2] = live-cell imaging, rat hippocampal neuron axons; conditions: glycan lost; control: WT NF-L
IP/IB, baseline = conditions: glycan lost; control: WT NF-L
[3] = differential extraction, NEFL−/− 293T, no OGT; conditions: glycan lost; control: WT NF-L without OGT
[4] = IFA of filaments, NEFL−/− SH-SY5Y; conditions: glycan gained; control: WT NF-L without OGT
[5] = differential extraction, urea-fraction NF-L, 293T; conditions: glycan gained; control: WT NF-L without OGT
IP/IB = conditions: glycan gained; control: WT NF-L without OGT

B1: neurofilament-light (NF-L): NF-L4A (protein)
parent chain: MSSFSYEPYYSTSYKRRYVETPRVHISSVRSGYSTARSAYSSYSAPVSSSLSVRRSYSSSSGSLMPSLENLDLSQVAAISNDLKSIRTQEKAQLQDLNDRFASFIERVHELEQQNKVLEAELLVLRQKHSEPSRFRALYEQEIRDLRLAAEDATNEKQALQGEREGLEETLRNLQARYEEEVLSREDAEGRLMEARKGADEAALARAELEKRIDSLMDEISFLKKVHEEEIAELQAQIQYAQISVEMDVTKPDLSAALKDIRAQYEKLAAKNMQNAEEWFKSRFTVLTESAAKNTDAVRAAKDEVSESRRLLKAKTLEIEACRGMNEALEKQLQELEDKQNADISAMQDTINKLENELRTTKSEMARYLKEYQDLLNVKMALDIEIAAYRKLLEGEETRLSFTSVGSITSGYSQSSQVFGRSAYGGLQTSSYLMSTRSFPSYYTSHVQEEQIEVEETIEAAKAEEAKDEPPSEGEAEEEEKDKEEAEEEEAAEEEEAAKEESEEAKEEEEGGEGEEGEETKEAEEEEKKVEGAGEEQAAKKKD
**Q.** For B1, which oligomerisation [1] is on record?
**A.** decreases

**Q.** And the “other: suppression of mitochondrial motility” value [2]?
**A.** abolishes

**Q.** What about the “other: NF-L phosphorylation” value (IP/IB, baseline) of the same protein?
**A.** increases

B2: neurofilament-light (NF-L): S48A (protein)
parent chain: B1 parent chain
**Q.** For B2, which oligomerisation [3] is on record?
**A.** no change

B3: neurofilament-light (NF-L): S34A (protein)
parent chain: B1 parent chain
**Q.** For B3, which oligomerisation [3] is on record?
**A.** no change

B4: neurofilament-light (NF-L): NF-L5A (protein)
parent chain: B1 parent chain
**Q.** With B4 as the protein, how does the “other: NF-L phosphorylation” value (IP/IB, baseline) read?
**A.** increases

B5: neurofilament-light (NF-L): S27A (protein)
parent chain: B1 parent chain
**Q.** With B5 as the protein, how does the oligomerisation [3] read?
**A.** no change

B6: neurofilament-light (NF-L): T21A (protein)
parent chain: B1 parent chain
**Q.** For B6, which oligomerisation [3] is on record?
**A.** no change

B7: neurofilament-light (NF-L): OGT co-expression (protein)
parent chain: B1 parent chain
**Q.** For B7, which oligomerisation [4] is on record?
**A.** decreases

**Q.** What about the oligomerisation [5] of the same protein?
**A.** decreases

**Q.** What about the “other: NF-L phosphorylation” value (IP/IB) of the same protein?
**A.** decreases

B8: neurofilament-light (NF-L): S431A (protein)
parent chain: B1 parent chain
**Q.** With B8 as the protein, how does the oligomerisation [3] read?
**A.** no change
